# Experimental data reported in doi:10.1101/2020.01.22.914192, “CryoEM structures of human CMG - ATPγS - DNA and CMG - AND-1 complexes”.
# B1: fork DNA 70T/70GC (dsDNA)
# DNA 1: CGTTTTACAACGTCGTGACTGGGCACTTGATCGGCCAACCTTTTTTTTTTTTTTTTTTTTTTTTTTTTTT
# DNA 2: CAGGCAGGCAGGCAGGCAGGCAGGCAGGCAGGTTGGCCGATCAAGTGCCCAGTCACGACGTTGTAAAACG
# Target: CMG helicase (Cdc45-MCM2-7-GINS) (human, UniProt P49736;P25205;P33991;P33992;Q14566;P33993;O75419;Q14691;Q9Y248;Q9BRX5;Q9BRT9 …)
# Assay: cryoEM structure (3.29 A); ATPgS 100 uM; 5 mM Mg acetate; ATPgS/Mg2+ at MCM6, 4, 7; ADP at MCM2, 3; MCM5 site empty; Buffer S: 25 mM Hepes pH 7.5, 50 mM KCl, 5 mM Mg acetate, 2 mM DTT, 100 uM ATPgS; 4 uM fork DNA applied to StrepTrap-bound CMG, eluted with 15 mM desthiobiotin; binding temperature not stated (stored overnight at 4 C)
# Details: protein: recombinant; tags: MCM4 N-terminal His8-TEV; Psf2 C-terminal TEV-2xStrepII; copies: 1;1;1;1;1;1;1;1;1;1;1; fork: 40 bp duplex, 30 nt 3' poly-dT tail (strand 1) and 30 nt 5' GC-rich tail (strand 2)
binder,measurement,value
B1,binding result,binds
